Source: paper doi:10.1101/2025.09.11.675134, “Biodistribution-Driven Discovery Identifies a Glycosidase-Cleavable Linker to Reprogram Radiotheranostics” (bioRxiv, 2025)

Experiment: Blood chemistry and complete blood count during therapy
Format: in vivo, athymic nu/nu mice
Conditions: one cycle of 225Ac treatment (148 kBq), blood at 0, 10 and 31 days, VetScan HM5
From the text: Blood samples were collected at multiple timepoints during therapy studies and analyzed to assess toxicity (Fig. S25). Biochemical parameters of liver (e.g. alanine aminotransferase, bilirubin) and renal (blood urea nitrogen, and creatinine) toxicity remained mostly within normal limits across all groups. […] These findings further support the favorable tolerability profiles of the cleavable linker constructs.
Additionally, a basic metabolic panel (BMP) and complete blood count (CBC) analysis were performed to monitor hematological parameters and potential treatment-related toxicity. For the one-cycle therapy cohort, blood was collected at 0-, 10-, and 31-days post-treatment, whereas for the two-cycle therapy cohort, blood was collected at 10 days, 3 months, and 6 months post-treatment. Samples were obtained retro-orbitally into potassium EDTA-coated tubes and analyzed using the Vetscan VS2 (Abaxis, Union City, CA, USA) and VetScan HM5 hematology analyzer (Abaxis). Although these instruments provide species-specific reference intervals, manufacturer-supplied ranges may not fully reflect our study cohort. […] The following parameters were assessed and compared: alanine transaminase (ALT, U/L), total bilirubin (TBIL, μmol/L), creatinine (CRE, μmol/L), blood urea nitrogen (BUN, mmol/L), total white blood cell count (WBC, 10^9/L), hemoglobin (HGB, g/dL), and platelets (PLT, 10^9/L).

Question: With `C[C@@H](O)[C@H](NC(=O)[C@@H]1CSSC[C@H](NC(=O)[C@@H](Cc2ccccc2)NC(=O)CCCC(=O)Nc2cc(COC(=O)N(C)CCNC(=O)CN3CCN(CC(=O)O)CCN(CC(=O)O)CCN(CC(=O)O)CC3)ccc2O[C@@H]2O[C@H](CO)[C@H](O)[C@H](O)[C@H]2O)C(=O)N[C@@H](Cc2ccc(O)cc2)C(=O)N[C@H](Cc2c[nH]c3ccccc23)C(=O)N[C@@H](CCCCN)C(=O)N[C@@H]([C@@H](C)O)C(=O)N1)C(=O)O` [^225Ac-DOTA-β-Gal-TATE, metal not drawn] as the compound, how does the “White blood cell counts” value read?
Answer: transient decrease following one cycle of ^225Ac treatment that recovered at later time points
